The source of these data is paper PMC5886543, “A staphylococcal anti-sigma factor possesses a single-domain, carries different denaturant-sensitive regions and unfolds via two intermediates” (PLoS ONE, 2018).

This data set deals with the molecule itself. The data set is described as follows: cross-linking; rRsbW 10 uM in buffer B (20 mM phosphate pH 8.0, 100 mM NaCl, 5% glycerol), 0.1% glutaraldehyde, 2 min, 25 C; SDS-13.5% PAGE; no denaturant.

B1: rRsbW, a recombinant S. aureus RsbW (enzyme, Staphylococcus aureus Newman, UniProt A6QIR1 1-159, looked up)
chain: MQSKEDFIEMRVPASAEYVSLIRLTLSGVFSRAGATYDDIEDAKIAVSEAVTNAVKHAYKENNNVGIINIYFEILEDKIKIVISDKGDSFDYETTKSKIGPYDKDENIDFLREGGLGLFLIESLMDEVTVYKESGVTISMTKYIKKEQVRNNGERVEIS
notes: RsbW of Staphylococcus aureus Newman, UniProt A6QIR1; 480 bp insert amplified from genomic DNA with primers rsbWF (begins at the ATG) and rsbWR; native RsbW 17.92 kDa, rRsbW 21.74 kDa. numbers count on: rRsbW with its 36 N-terminal extra residues (RsbW residue 1 is rRsbW residue 37); Surmised: the 36 extra residues are those that pET28a adds before its EcoRI site; also called anti-sigma factor; …
As to B1, the stoichiometry N (usually a count of units in the complex or per binding partner) is 2.
